Assay results: article PMC2912409

Tests used:
Assay in all cases: ITC
DB_D190A = DB_D190A (human, UniProt P03372 176-250, D190A)
DB_R211A = DB_R211A (human, UniProt P03372 176-250, R211A)
DB_K210A = DB_K210A (human, UniProt P03372 176-250, K210A)
DB_Y197A = DB_Y197A (human, UniProt P03372 176-250, Y197A)
DB_AA = DB_AA (human, UniProt P03372 176-250, H196A;E203A)
DB_S193A = DB_S193A (human, UniProt P03372 176-250, S193A)
DB_H196A = DB_H196A (human, UniProt P03372 176-250, H196A)
DB_K206A = DB_K206A (human, UniProt P03372 176-250, K206A)
DB_S201A = DB_S201A (human, UniProt P03372 176-250, S201A)
DB_E203A = DB_E203A (human, UniProt P03372 176-250, E203A)
DB_E203A, sequence (P03372 176-250 E203A): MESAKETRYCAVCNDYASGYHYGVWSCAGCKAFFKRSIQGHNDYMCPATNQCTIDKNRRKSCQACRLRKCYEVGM

DB_D190A, sequence (P03372 176-250 D190A): as the sequence (P03372 176-250 E203A) above, with D15A, A28E counted along it
DB_S193A, sequence (P03372 176-250 S193A): as the sequence (P03372 176-250 E203A) above, with S18A, A28E counted along it
DB_S201A, sequence (P03372 176-250 S201A): as the sequence (P03372 176-250 E203A) above, with S26A, A28E counted along it
DB_AA, sequence (P03372 176-250 H196A/E203A): as the sequence (P03372 176-250 E203A) above, with H21A counted along it
DB_K210A, sequence (P03372 176-250 K210A): as the sequence (P03372 176-250 E203A) above, with A28E, K35A counted along it
DB_K206A, sequence (P03372 176-250 K206A): as the sequence (P03372 176-250 E203A) above, with A28E, K31A counted along it
DB_Y197A, sequence (P03372 176-250 Y197A): as the sequence (P03372 176-250 E203A) above, with Y22A, A28E counted along it
DB_H196A, sequence (P03372 176-250 H196A): as the sequence (P03372 176-250 E203A) above, with H21A, A28E counted along it
DB_R211A, sequence (P03372 176-250 R211A): as the sequence (P03372 176-250 E203A) above, with A28E, R36A counted along it

B1: ERE duplex (dsDNA)
DNA 1: CCCAGGTCACAGTGACCTGCG
DNA 2: CGCAGGTCACTGTGACCTGGG
Kd (DB_D190A): 67 ± 6 nM
Kd (DB_R211A): 745 ± 76 nM
Kd (DB_K210A): 326 ± 11 nM
Kd (DB_Y197A): 316 ± 7 nM
Kd (DB_AA): 387 ± 90 nM
Kd (DB_S193A): 102 ± 10 nM
Kd (DB_H196A): 190 ± 24 nM
Kd (DB_K206A): 313 ± 6 nM
Kd (DB_S201A): 119 ± 9 nM
Kd (DB_E203A): 172 ± 48 nM
